Results taken from article PMC6255954 (British Journal of Pharmacology, 2018).

Columns and labels:
[1] = molecular target: T1, GFP‐tagged human NOP receptor in HEK cells (HEK_(hNOP‐GFP)) (human, UniProt P41146 1-370); assay: cell-based or functional assay
[2] = molecular target: T2, human N/OFQ peptide (NOP) receptor, recombinant in HEK cells (HEK_(hNOP)) (human, UniProt P41146 1-370); assay: radioligand binding; displacement of [3H]-N/OFQ in HEK_(hNOP) and HEK_(hNOP-GFP) cells, room temperature; details: one partner purified
T2 construct: nociceptin/orphanin FQ (N/OFQ) peptide receptor (NOP), human, recombinant in HEK cells, no GFP; also called HEKNOP; source: HEK cells expressing the recombinant NOP receptor; live cells on coverslips (confocal) and radioligand displacement

[3] = molecular target: T1, GFP‐tagged human NOP receptor in HEK …; assay: as above; details: one partner purified
[4] = molecular target: T3, human N/OFQ peptide (NOP) receptor, recombinant in CHO cells (CHO_(hNOP)) (human, UniProt P41146 1-370); assay: radioligand binding; displacement of ~0.8 nM [3H]-N/OFQ from CHO_(hNOP) membranes (20-40 ug protein) by 1 pM-10 uM ligand; 50 mM Tris-HCl pH 7.4 with 0.5% BSA, room temperature, 1 h, vacuum filtration; non-specific binding with 1 uM N/OFQ; details: one partner purified
T3 construct: nociceptin/orphanin FQ (N/OFQ) peptide receptor (NOP), human, recombinant in CHO cells; used as cell membranes; source: CHO cells, stably transfected, cell membranes

[5] = molecular target: T2, human N/OFQ peptide (NOP) receptor, …; assay: confocal microscopy of a fluorescent ligand on live cells; N/OFQ_(ATTO594) added cumulatively (1 pM-100 nM) to HEK_(hNOP) or HEK_(hNOP-GFP) cells on coverslips, 5 min at 4°C in Krebs buffer pH 7.4, washed, imaged with the 594 nm laser; corrected total cell fluorescence; saturation curve; details: one partner purified
[6] = molecular target: T1, GFP‐tagged human NOP receptor in HEK …; assay: as above; details: one partner purified

T1 sequence (P41146 whole entry): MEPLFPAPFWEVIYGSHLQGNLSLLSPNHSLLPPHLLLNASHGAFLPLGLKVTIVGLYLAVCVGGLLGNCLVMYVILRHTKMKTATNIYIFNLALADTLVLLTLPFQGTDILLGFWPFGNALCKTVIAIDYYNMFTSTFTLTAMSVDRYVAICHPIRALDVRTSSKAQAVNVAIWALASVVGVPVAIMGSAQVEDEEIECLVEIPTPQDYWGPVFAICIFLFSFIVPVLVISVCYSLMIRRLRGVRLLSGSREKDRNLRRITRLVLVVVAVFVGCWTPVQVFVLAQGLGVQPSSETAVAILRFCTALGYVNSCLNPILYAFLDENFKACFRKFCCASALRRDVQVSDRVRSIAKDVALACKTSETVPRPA
T2 sequence (P41146 whole entry): as above
T3 sequence (P41146 whole entry): as above

Binder: FGGFTGARKSARKLANQC (ATTO 594 on Cys18; C-terminal amide (NH2)) [[Cys(ATTO 594)^18]N/OFQ‐NH2]
- pEC50, inhibition of forskolin-stimulated cAMP formation in HEK_(hNOP-GFP) cells, 0.1 pM-1 μM, 37°C, 15 min [1]: 9.73
- pKi [2]: 9.14
- pKi [3]: 8.98
- pKi [4]: 9.21
- pKd [5]: 9.51
- pKd [6]: 8.53
